Test results taken from US20200164029A1 (ACCELERON PHARMA, published 2020).
Each block holds one binder with its values, some of them ahead of it.

Tests used:
Experiment in all cases: SPR, captured hENG-hFc, soluble ligand
[1] = target: T1, hENG(26-332)-hFc (human, UniProt P17813 26-332)
T1 construct: not shown: human IgG1 Fc domain
T1 sequence: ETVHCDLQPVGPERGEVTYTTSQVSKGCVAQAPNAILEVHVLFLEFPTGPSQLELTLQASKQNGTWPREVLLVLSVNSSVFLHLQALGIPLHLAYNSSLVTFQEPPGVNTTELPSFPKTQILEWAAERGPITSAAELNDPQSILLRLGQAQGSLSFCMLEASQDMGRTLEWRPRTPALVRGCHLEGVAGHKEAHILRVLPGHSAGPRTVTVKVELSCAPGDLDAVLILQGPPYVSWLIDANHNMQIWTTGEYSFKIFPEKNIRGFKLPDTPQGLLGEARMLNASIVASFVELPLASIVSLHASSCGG

[2] = target: T2, hENG(26-329)-hFc (human, UniProt P17813 26-329)
T2 construct: not shown: human IgG1 Fc domain
T2 sequence: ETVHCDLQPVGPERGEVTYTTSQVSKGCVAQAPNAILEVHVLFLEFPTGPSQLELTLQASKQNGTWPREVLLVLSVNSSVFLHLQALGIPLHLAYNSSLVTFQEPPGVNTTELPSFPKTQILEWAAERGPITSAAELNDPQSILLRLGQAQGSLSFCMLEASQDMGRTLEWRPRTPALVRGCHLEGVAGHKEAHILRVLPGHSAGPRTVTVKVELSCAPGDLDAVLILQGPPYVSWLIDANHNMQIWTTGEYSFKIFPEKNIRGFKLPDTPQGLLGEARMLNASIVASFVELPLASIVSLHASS

[3] = target: T3, hENG(26-257)-hFc (human, UniProt P17813 26-257)
T3 construct: not shown: human IgG1 Fc domain
T3 sequence: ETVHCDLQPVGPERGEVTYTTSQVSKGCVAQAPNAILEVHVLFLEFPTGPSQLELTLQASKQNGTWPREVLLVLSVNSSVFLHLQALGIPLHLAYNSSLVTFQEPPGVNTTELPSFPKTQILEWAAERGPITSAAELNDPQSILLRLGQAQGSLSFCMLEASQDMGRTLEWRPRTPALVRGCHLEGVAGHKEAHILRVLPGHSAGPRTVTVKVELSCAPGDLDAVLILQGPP

[4] = target: T4, hENG(360-586)-hFc (human, UniProt P17813 360-586)
T4 construct: not shown: human IgG1 Fc domain
T4 sequence: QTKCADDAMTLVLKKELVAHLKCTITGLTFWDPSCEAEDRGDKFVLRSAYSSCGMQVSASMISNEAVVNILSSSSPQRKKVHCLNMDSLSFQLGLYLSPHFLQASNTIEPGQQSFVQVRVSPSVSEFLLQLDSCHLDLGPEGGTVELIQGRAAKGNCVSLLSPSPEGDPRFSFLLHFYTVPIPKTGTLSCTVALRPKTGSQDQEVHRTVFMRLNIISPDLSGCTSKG

[5] = target: T5, hENG(438-586)-hFc (human, UniProt P17813 438-586)
T5 construct: not shown: human IgG1 Fc domain
T5 sequence: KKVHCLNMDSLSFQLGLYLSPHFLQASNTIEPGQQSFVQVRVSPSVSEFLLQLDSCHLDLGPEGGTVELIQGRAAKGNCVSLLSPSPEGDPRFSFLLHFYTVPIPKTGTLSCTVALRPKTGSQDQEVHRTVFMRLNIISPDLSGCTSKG

[6] = target: T6, hENG(61-346)-hFc (human, UniProt P17813 61-346)
T6 construct: not shown: human IgG1 Fc domain
T6 sequence: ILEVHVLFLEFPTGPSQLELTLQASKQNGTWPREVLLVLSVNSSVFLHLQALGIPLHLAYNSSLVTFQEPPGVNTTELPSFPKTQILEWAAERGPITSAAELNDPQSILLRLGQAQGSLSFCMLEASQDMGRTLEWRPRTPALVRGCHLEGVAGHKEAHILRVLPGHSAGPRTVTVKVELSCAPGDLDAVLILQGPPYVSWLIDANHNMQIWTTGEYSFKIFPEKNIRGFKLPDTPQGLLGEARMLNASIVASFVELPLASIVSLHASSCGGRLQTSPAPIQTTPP

[7] = target: T7, hENG(129-346)-hFc (human, UniProt P17813 129-346)
T7 construct: not shown: human IgG1 Fc domain
T7 sequence: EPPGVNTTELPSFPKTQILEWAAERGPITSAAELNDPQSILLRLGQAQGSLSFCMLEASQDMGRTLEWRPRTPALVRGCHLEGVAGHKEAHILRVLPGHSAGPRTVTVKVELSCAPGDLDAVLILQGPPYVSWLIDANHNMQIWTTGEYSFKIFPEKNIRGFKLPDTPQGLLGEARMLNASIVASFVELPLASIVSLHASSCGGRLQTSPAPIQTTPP

[8] = target: T8, hENG(133-346)-hFc (human, UniProt P17813 133-346)
T8 construct: not shown: human IgG1 Fc domain
T8 sequence: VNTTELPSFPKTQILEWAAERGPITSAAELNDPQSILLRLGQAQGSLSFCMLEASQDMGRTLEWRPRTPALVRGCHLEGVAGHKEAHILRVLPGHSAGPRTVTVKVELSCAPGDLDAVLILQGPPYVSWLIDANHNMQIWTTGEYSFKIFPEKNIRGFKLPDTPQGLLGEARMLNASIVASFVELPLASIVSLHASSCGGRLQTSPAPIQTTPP

[9] = target: T9, hENG(166-346)-hFc (human, UniProt P17813 166-346)
T9 construct: not shown: human IgG1 Fc domain
T9 sequence: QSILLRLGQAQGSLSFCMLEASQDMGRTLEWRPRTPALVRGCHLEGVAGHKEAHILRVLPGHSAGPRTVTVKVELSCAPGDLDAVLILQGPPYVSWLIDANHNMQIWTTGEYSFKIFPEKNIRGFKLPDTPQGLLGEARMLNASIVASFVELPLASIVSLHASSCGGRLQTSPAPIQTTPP

[10] = target: T10, hENG(360-581)-hFc (human, UniProt P17813 360-581)
T10 construct: not shown: human IgG1 Fc domain
T10 sequence: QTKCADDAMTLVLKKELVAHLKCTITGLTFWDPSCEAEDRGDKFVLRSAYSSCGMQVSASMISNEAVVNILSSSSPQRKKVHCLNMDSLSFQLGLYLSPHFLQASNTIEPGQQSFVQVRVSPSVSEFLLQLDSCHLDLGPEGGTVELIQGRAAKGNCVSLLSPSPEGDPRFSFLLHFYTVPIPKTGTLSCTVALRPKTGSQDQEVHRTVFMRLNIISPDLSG

- binding result [1]: no binding (tested: 100 nM)
- binding result [2]: no binding (tested: 100 nM)
- binding result [3]: no binding (tested: 100 nM)
- binding result [4]: no binding (tested: 100 nM)
- binding result [5]: no binding (tested: 100 nM)
- binding result [6]: no binding (tested: 100 nM)
- binding result [7]: no binding (tested: 100 nM)
- binding result [8]: no binding (tested: 100 nM)
- binding result [9]: no binding (tested: 100 nM)
- binding result [10]: no binding (tested: 100 nM)
B1: human BMP-10 (ligand, UniProt O95393 317-424, looked up)
chain: NAKGNYCKRTPLYIDFKEIGWDSWIIAPPGYEAYECRGVCNYPLAEHLTPTKHAIIQALVHLKNSQKASKACCVPTKLEPISILYLDKGVVTYKFKYEGMAVSECGCR
notes: also called hBMP-10

- binding result [1]: no binding (tested: 100 nM)
- binding result [2]: no binding (tested: 100 nM)
- binding result [3]: no binding (tested: 100 nM)
- binding result [4]: no binding (tested: 100 nM)
- binding result [5]: no binding (tested: 100 nM)
- binding result [6]: no binding (tested: 100 nM)
- binding result [7]: no binding (tested: 100 nM)
- binding result [8]: no binding (tested: 100 nM)
- binding result [9]: no binding (tested: 100 nM)
- binding result [10]: no binding (tested: 100 nM)
B2: human BMP-9 (ligand, UniProt Q9UK05 320-429, looked up)
chain: SAGAGSHCQKTSLRVNFEDIGWDSWIIAPKEYEAYECKGGCFFPLADDVTPTKHAIVQTLVHLKFPTKVGKACCVPTKLSPISVLYKDDMGVPTLKYHYEGMSVAECGCR
notes: also called hBMP-9
